# The RNAGym collection of RNA variant scans (doi:10.1073/pnas.2313332121)
# B1: TPR t1 (parent)
# chain: GACCAAUCUGCCCUCAGAGCUCGAGAACAUCUUCGGAUGCAGAGGAGGCAGGCUUCGGUGGCGCGAUAGCGCCAACGUCCUCAACCUCCAAUGCAUCCCACCACAUGAUGAUGCCUGAAGAGCCUUGGUUUUUUG
# Variants of: B1
# Assay: polymerase ribozyme fitness, log enrichment relative to wild type (log ratio); higher = more active; in vitro selection for triplet polymerase activity
# Procedure, shortened: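 A single round of triplicate in vitro selection, including frozen incubation at −7 °C, was applied to PCR-built, transcribed mutant libraries of each subunit of a heterodimeric triplet polymerase ribozyme. Illumina sequencing of input and output libraries retained genotypes with ≥10 input reads and ≥1 read per output. Fitness is the base-2 logarithm of genotype enrichment divided by wild-type enrichment, from inverse-variance-weighted replicate averages.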
row,Variant,polymerase ribozyme fitness (log ratio)
1,GACCAAUCUGCCCUCAGAGCUCGAGAACAUCUUCGGAUGCAGAGGAGGCAGGAUUCGGUGGCGCGAUAGCGCCAACGUCCUCAACCUCCAAUGCAUCCCACCACAGGAUGAUGCCUGAAGUGCCUUGGUUUUUUG,0.877
2,GACCAAUCUGCCCUCAGAGCUCGAGAACAUCUUCGGAUGCAGAGGAGGCAGGAUUCGGUGGCGCGAUAGCGCCAACGUCCUCAACCUCCAAUGCAUCCCACCACAUGAUGAAGCCUGAAGAGCCUUGGUUUUUUG,0.632
3,GACCAAUCUGCCCUCAGAGCUCGAGAACAUCUUCGGAUGCAGAGGAGGCAGGAUUCGGUGGCGCGAUAGCGCCAACGUCCUCAACCUCCAAUGCAUCCCACCACAUGAUGAGGCCUGAAGAGCAUUGGUUUUUUG,0.889
4,GACCAAUCUGCCCUCAGAGCUCGAGAACAUCUUCGGAUGCAGAGGAGGCAGGGUUCGGUGGCGCGAUAGCGCCAACGUCCUCAACCUCCAAUGCAUCCCACCACAUGAUGAUGCCUGAAGAGCCUUGGUUUUUUG,-0.355
5,GACCAAUCUGCCCUCAGAGCUCGAGAACAUCUUCGGAUGCAGAGGAGGCAGGGUUCGGUGGCGCGCUAGCGCCAACGUCCUCGUCCUCCAAUGCAUCCCACCACAUGAUGAUGCCUGAAGAGCCUUGGUUUUUUG,-3.08
6,GACCAAUCUGCCCUCAGAGCUCGAGAACAUCUUCGGAUGCAGAGGAGGCAGGGUUCGGUGGCGCGAUAGCGCCAACGUCCUCAACCUCCGAUGCAUCCCACCACAUGAUGAUGCCUGAAGAGCCUUGGUUUUUUG,0.537
7,GACCAAUCUGCCCUCAGAGCUCGAGAACAUCUUCGGAUGCAGAGGAGGCAGGGUUAGGUAGCGCGAUAGCGCCAACGUCCUCAACCUCCAAUGCAUCCCACCACAUGAUGGUGCCUGAAGAGCCUUGGUUUUUUG,-0.505
8,GACCAAUCUGCCCUCAGAGCUCGAGAACAUCUUCGGAUGCAGAGGAGGCAGGGUUGGGUGGCGCGAUAGCGCCAACGUCCUGAAACUCCAAUGGAUCCCACCACAUGAUGAUGCCUGAAGAGCCUUGGUUUUUUG,-2.28
9,GACCAAUCUGCCCUCAGAGCUCGAGAACAUCUUCGGAUGCAGAGGAGGCAGGGUUUGGUGGCGCGAUAGCGCCAACGUCCUCAACCUCCAAUGCAUCCCACCACAUGAUGAUGCCUGAAGAGCCUUGGUUUUUUG,-0.756
10,GACCAAUCUGCCCUCAGAGCUCGAGAACAUCUUCGGAUGCAGAGGAGGCAGGGUUCGGUGGAGCGAUAGUGCCAACGGCCUCAACCUCCAAUGCAUCCCACCACAUGAUGAUGCCUGAAGAGCCUUGGUUUUUUG,-2.63
11,GACCAAUCUGCCCUCAGAGCUCGAGAACAUCUUCGGAUGCAGAGGAGGCAGGGUUCGGUGGCGAGAUAGCGCCAACGUCCUCAACCUCCAAUGCAUCCCACCACAUGAUGAGGCCUGAAGAGCAUUGGUUUUUUG,-6.11
12,GACCAAUCUGCCCUCAGAGCUCGAGAACAUCUUCGGAUGCAGAGGAGGCAGGGUUCGGUGGCGUGAUAGCGCCAACGUCCUCAACCUCCAAUGCAUCCCACCACAUGAUUAUGCCUGAAGAGCCUUGGUUUUUUG,-3.95
13,GACCAAUCUGCCCUCAGAGCUCGAGAACAUCUUCGGAUGCAGAGGAGGCAGGGUUCGGUGGCGUGAUAGCGCCAACGUCCUCAACCUCCAAUGCAUCCCACCACAUGAUGAUGCCUGAAGAGCCUUUGUUUUUUG,-1.02
14,GACCAAUCUGCCCUCAGAGCUCGAGAACAUCUUCGGAUGCAGAGGAGGCAGGGUUCGGUGGCGCGAUAGGGCCAACGUCCUCAACCUCCAAUGCAUCCCACCAUAUGAUGAUGUCUGAAUAGGAUUGGUUUUUUG,-6.46
15,GACCAAUCUGCCCUCAGAGCUCGAGAACAUCUUCGGAUGCAGAGGAGGCAGGGUUCGGUGGCGCGAUAGUGCCAACGUCCUCAACCUCCAAUGCAUCCCACCACAUGAUGAUGCCUGAAGAGCCUUGGUUUUUUG,-1.16
16,GACCAAUCUGCCCUCAGAGCUCGAGAACAUCUUCGGAUGCAGAGGAGGCAGGGUUCGGUGGCGCGAUAGCGACAACGUCCUCAACCUCCAAUGCAUCCCACCACAUGAUGAGCCCUGAAGAGCCUUGGUUUUUUG,-7.66
17,GACCAAUCUGCCCUCAGAGCUCGAGAACAUCUUCGGAUGCAGAGGAGGCAGGGUUCGGUGGCGCGAUAGCGUCAACGUCCUCAACCUCCAAUGCAUCCCACCACAUGAUGAUGCCUGAAGAGCCUUGGUUUUUUG,-1.04
18,GACCAAUCUGCCCUCAGAGCUCGAGAACAUCUUCGGAUGCAGAGGAGGCAGGGUUCGGUGGCGCGAUAGCGCCAACGUCGUCAACCUCCAAUGCAUCCCACCACAUGAUGAUGCCUGAAGAGCCUUGGUUUUUUG,-3.16
19,GACCAAUCUGCCCUCAGAGCUCGAGAACAUCUUCGGAUGCAGAGGAGGCAGGGUUCGGUGGCGCGAUAGCGCCAACGUCCUAAACCUCCAAUGUAUCCCACCACAUGAUGAUGCCUGAAGAGCCUUGGUGUUUUG,-0.77
20,GACCAAUCUGCCCUCAGAGCUCGAGAACAUCUUCGGAUGCAGAGGAGGCAGGGUUCGGUGGCGCGAUAGCGCCAACGUCCUCAACCUCUAAUGCAUCCCACCACAUGAUGAUGCCUGAAGAGCCUUGGUUUUUUG,-0.681
21,GACCAAUCUGCCCUCAGAGCUCGAGAACAUCUUCGGAUGCAGAGGAGGCAGGGUUCGGUGGCGCGAUAGCGCCAACGUCCUCAACCUCCAAUGCAUUCCACCACAUGAUGAUGCCUGUAGAGCCUUGGUUUUUUG,-0.0977

row,Variant,polymerase ribozyme fitness (log ratio)
1,GACCAAUCUGCCCUCAGAGCUCGAGAACAUCUUCGGAUGCAGAGGAGGCAGGGUUCGGUGGCGCGAUAGCGCCAACGUCCUCAACCUCCAAUGCAUCCCACCAUAUGAUGGUGCCUGAAGAGCCUUGGUUUUUUG,0.815
2,GACCAAUCUGCCCUCAGAGCUCGAGAACAUCUUCGGAUGCAGAGGAGGCAGGGUUCGGUGGCGCGAUAGCGCCAACGUCCUCAACCUCCAAUGCAUCCCACCACAUGAUGAUGUCUGAAGAGCCUUGGUUUUUUG,-2.03
3,GACCAAUCUGCCCUCAGAGCUCGAGAACAUCUUCGGAUGCAGAGGAGGCAGGGUUCGGUGGCGCGAUAGCGCCAACGUCCUCAACCUCCAAUGCAUCCCACCACAUGAUGAUGCCUGAAGAGUCUUGGUUUUUUG,0.236
4,GACCAAUCUGCCCUCAGAGCUCGAGAACAUCUUCGGAUGCAGAGGAGGCAGGGUUCCGUGGCCCGAUAGCGCCAACGUCCUCAACCUCCAAUGCAUCCCACCACAUGAUGAUGCCUGAAGAGCCUUGGUUUUUUG,-0.44
5,GACCAAUCUGCCCUCAGAGCUCGAGAACAUCUUCGGAUGCAGAGGAGGCAGGGUUCUGUGACGCGAUAGCGCCAACGUCCUCAACCUCCAAUGCAUCCCACCACAUGAUGAUGCCUGAAGAGCCUUGGUUUUUUG,-0.189
6,GACCAAUCUGCCCUCAGAGCUCGAGAACAUCUUCGGAUGCAGAGGAGGCAGGGUUCGCUGGAGCGAUAGCGCCAACGUCCUCAAUCUCCAAUGCAUCCCACCACAUGAUGAUACCUGAAGAGCCUUGGUUUUUUG,-2.93
7,GACCAAUCUGCCCUCAGAGCUCGAGAACAUCUUCGGAUGCAGAGGAGGCAGGGUUCGGUGACGCGAUAGCGCCAACGUCCUCAACCUCCAAUGCAUCCCACCACAGGAUCAUGCCUGAAGAGCUUUGGUUUUUUG,-6.24
8,GACCAAUCUGCCCUCAGAGCUCGAGAACAUCUUCGGAUGCAGAGGAGGCAGGGUUCGGUGCCGCGAUAGCGCCAACGUCCUCAACCUCCAAUGCAUCCCACCACAUGAUGAUGCCUGAAGAGCCUUGGUUUUUUG,-1.1
9,GACCAAUCUGCCCUCAGAGCUCGAGAACAUCUUCGGAUGCAGAGGAGGCAGGGUUCGGUGCCGCGAUAGCGCCAACGUCCUCGACCUGCAAUGCAUCCCACCAAAUGAUGAUGCCUGAAGAGCCUUGGUUUUUUG,-4.92
10,GACCAAUCUGCCCUCAGAGCUCGAGAACAUCUUCGGAUGCAGAGGAGGCAGGGUUCGGUGGCACGAUAGCGCCAACGUCCUCAACCUCCAAUGAAUCCCACCACAUGAUGAUGCGUGAAGAGCCUUGCUUUUUUG,-6.79
11,GACCAAUCUGCCCUCAGAGCUCGAGAACAUCUUCGGAUGCAGAGGAGGCAGGGUUCGGUGGCCCGAUAGCGCCAACGUCCUCAACCUCCAAUGCAUCCCACCACAUGAUGAUGCCUGAAGAGCCUUGGUUUUUUG,-1.3
12,GACCAAUCUGCCCUCAGAGCUCGAGAACAUCUUCGGAUGCAGAGGAGGCAGGGUUCGGUGGCCCGAUAGCGCCAACGUCCUCAACCUCCAAUCCAUCCCACCACAUGAUGAUGACUGAAGAGCCUUGGUUUUUUG,-3.01
13,GACCAAUCUGCCCUCAGAGCUCGAGAACAUCUUCGGAUGCAGAGGAGGCAGGGUUCGGUGGCGCGAUAACGCCAACGUCCUCAACCUCCAAUGCAUCCCACCACAUGAUGAUGCCUGAAGAGCCUUGGUUUUUUG,-3.62
14,GACCAAUCUGCCCUCAGAGCUCGAGAACAUCUUCGGAUGCAGAGGAGGCAGGGUUCGGUGGCGCGAUAGCGCCAACGUCCUCAACCUCCAAUGCAUCCCACCACAUAAUGAUGCCUGAAGAGCCUUGGUUUUUUG,-5.6
15,GACCAAUCUGCCCUCAGAGCUCGAGAACAUCUUCGGAUGCAGAGGAGGCAGGGUUCGGUGGCGCGAUAGCGCCAACGUCCUCAACCUCCAAUGCAUCCCACCACAUUAUGAUGCCUGAAGAGGCUUGGUUUUUUG,-2.73
16,GACCAAUCUGCCCUCAGAGCUCGAGAACAUCUUCGGAUGCAGAGGAGGCAGGGUUCGGUGGCGCGAUAGCGCCAACGUCCUCAACCUCCAAUGCAUCCCACCACAUGAUCAUGCCUGAAGAGCCUUGGUUUUUUG,-4.65
17,GACCAAUCUGCCCUCAGAGCUCGAGAACAUCUUCGGAUGCAGAGGAGGCAGGGUUCGGUGGCGCGAUAGCGCCAACGUCCUCAACCUCCAAUGCAUCCCACCACAUGAUGAUGCCUAAAGAGCCUUGGUUUAUUG,-1.03
18,GACCAAUCUGCCCUCAGAGCUCGAGAACAUCUUCGGAUGCAGAGGAGGCAGGGUUCGGUGGCGCGAUAGCGCCAACGUCCUCAACCUCCAAUGCAUCCCACCACAUGAUGAUGCCUGAAAAGCCUUUGUUUUUUG,-0.0103
19,GACCAAUCUGCCCUCAGAGCUCGAGAACAUCUUCGGAUGCAGAGGAGGCAGGGUUCGGUGGCGCGAUAGCGCCAACGCCUUCAACCUCCAGCGCAUCCCACCACAUGAUGAUGCCUGAAGAGCAUUGGUUUUUUG,-5.02
20,GACCAAUCUGCCCUCAGAGCUCGAGAACAUCUUCGGAUGCAGAGGAGGCAGGGUUCGGUGGCGCGAUAGCGCCAACGUCCUCAACCGCCAAUGCAUUCCACCACAUGAUGAUGCCUUAAGAGCCUUGGUUUUUUG,-4.2
21,GACCAAUCUGCCCUCAGAGCUCGAGAACAUCUUCGGAUGCAGAGGAGGCAGGGUUCGGUGGCGCGAUAGCGCCAACGUCCUCAACCUCCAAUGCAUCCCACCACAUGAUGAUGCCCGAAGAGCCUUGGUUUUUUG,-1.68
